The supplement of paper PMC9170038

Tested on: MS2 coat protein
Assay: apparent KD of MS2 coat protein; designed switch direction (-1 OFF switch, 1 ON switch): -1; higher = weaker reporter binding
Outline: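 Designed RNA switches with common flanks were transcribed on Illumina chips by stalled E. coli RNA polymerase and titrated with SNAP-549-labelled MS2 coat protein, from 0.7 or 1.5 nM doubling to 3 µM, in Tris-HCl pH 7.5 buffer with KCl, MgCl2, BSA, DTT, tRNA and Tween-20. Steps lasted 0.8–1.5 h (lowest) to 10–20 min (highest). Titrations ran without input, with 200 uM small-molecule ligand, or with an oligonucleotide input. Normalised cluster fluorescence was curve-fitted, and apparent KD is the per-design median over clusters.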

[1] = Eterna round: R95, input ligand: FMN 200 uM
[2] = Eterna round: R95, input ligand: microRNA oligo, concentration not stated
[3] = Eterna round: R95, input ligand: none
[4] = input ligand: microRNA oligo, concentration not stated

| Sequence | apparent KD of MS2 coat protein [2] [nM] | apparent KD of MS2 coat protein (input ligand: FMN 200 uM) [nM] | apparent KD of MS2 coat protein (input ligand: none) [nM] | also measured |
| --- | --- | --- | --- | --- |
| AGAUGUAGAUACCGAUCCUACAUGAGGAUCACCCAUGUAGCUAGACGUGCACGCGAAGCUCGUCAGACUACCAGAAG [salish99_TOv1_r3_084] (puzzle: Sensor v3, turn-off variant 1) | 144 | – | – | apparent KD of MS2 coat protein [1]: 172 nM; apparent KD of MS2 coat protein [3]: 261 nM |
| UUUUGGCAGGUAAUUAUUAACAUGAGGAUCACCCAUGUGCAUCCAAAAUUACUUUUAGAUCAAGCUCGUCUUAUAUA [JR_STOV1_Sub088] (Eterna round: R97, puzzle: Sensor, turn-off variant 1) | – | 34 | 35.2 | – |
| AAGAAACGAGGAUAUACAGUUGAGUGAGAGAGGGUAGUGUUACAUGAGGAUCACCCAUGUAGAAGGCGUGAGAG [JR_Exclu2_Sub089] (puzzle: Exclusion 2) | 31.5 | – | – | apparent KD of MS2 coat protein [1]: 52.7 nM; apparent KD of MS2 coat protein [3]: 32.7 nM |
| AUACACUUAGUGAGGAUAUCGUUUUCUUUACGGAUCGAGAAGGCACAUGAGGAUCACCCAUGUUUGACGUGAAU [JR_BMOE4_Sub095] (puzzle: Brourd's mod of Exclusion 4) | 20.5 | – | – | – |
| GUGGUACAUGAGGAUCACCCAUGUGAGGAUAUGUCUGUCUGUUGGUUUCGGCGGGCGGGCAGAAGGCGCGUCGC [-27.3, -25.1 kcal, 16% A] (Eterna round: R97, puzzle: Exclusion 1) | – | 34.1 | 31.6 | – |
| UGAGUGCUGCGAGGAUAUACAUGAGGAUCACCCAUGUAAACCUGUGAGGCUUUGCCUCACAGGAUGUAGAAGGCGCAGUACUCU [JL ENG2 1.16] (Eterna round: R96, puzzle: Exclusion NG 2) | – | 15.5 | 13.2 | apparent KD of MS2 coat protein [4]: 9.94 nM |
| AGUGCUGACACGUUGGUGUUAGUACCAUAAGCUUGUGAUACAUGAGGAUCACCCAUGUCCUCAUAAGCUCGUCUUAU [salish99_TOv2_r2_097] (puzzle: Sensor v3, turn-off variant 2) | 669 | – | – | apparent KD of MS2 coat protein [1]: 28.6 nM; apparent KD of MS2 coat protein [3]: 26.8 nM |
| CAGUACUGAGGAUAUACAUGAGGAUCACCCAUGUGUUCCAGCUAGGAAACUAGCAUAAGUAGAAGGCAGUACUG [salish99_ex3_r3_091x] (Eterna round: R96, puzzle: Exclusion 3) | – | 461 | 23.6 | apparent KD of MS2 coat protein [4]: 18.4 nM |
| CCCGGAUCAACUCCCGGGAACAACAUGAGGAUCACCCAUGUCUAGGAUAUCCACCAGUCAAUAAAGGAGAAGGAGACGGUGGUU [Raesessoqu] (Eterna round: R96, puzzle: Exclusion NG 3) | – | 32.5 | 30.5 | apparent KD of MS2 coat protein [4]: 23.3 nM |
| ACAUGUAAUGCAGGAUAUUUUACACAUGAGGAUCACCCAUGUGACCAGAGGAAUUGCUAUGAGUAGAAGAAGGGUAUGUACAUG [Ex NG2 #56] (Eterna round: R96, puzzle: Exclusion NG 2) | – | 78.8 | 64.4 | apparent KD of MS2 coat protein [4]: 56.7 nM |
| CGGCAAAGGUAGGAUAUGCUAGACGAGAGUCUAGCAGAAGGACCUACAUGAGGAUCACCCAUGUGUCCAAGCCG [Mat - Exclusion 6 - Eli Mod - D20] (Eterna round: R97, puzzle: Exclusion 6) | – | 32 | 97.3 | – |
| GUAACAACUAGAGGAUAUCAGCACGUGUAGUGCUGAGAAGGCUAGAGUUACAUGAGGAUCACCCAUGUCUAGAGAUCAUUAAUU [ENG1/13-A3] (Eterna round: R96, puzzle: Exclusion NG 1) | – | 142 | 69.3 | apparent KD of MS2 coat protein [4]: 52.9 nM |
| GUCACAUGGACAUAGGAUCACAUGAGGAUCACCCAUGUGACUAACAAGCUUUUUGUUCGUCUUAUGUCCAUGUGAAG [Stov1/15-B3] (Eterna round: R97, puzzle: Sensor, turn-off variant 1) | – | 12.4 | 12 | – |
| AGUAGUUCAGGAUAUGAUGUUAAAUACAUGAGGAUCACCCAUGUAGAUCCUGAAUUUACAUCAGAAGGGAAUAACU [JR_Ex5_Sub082] (Eterna round: R97, puzzle: Exclusion 5) | – | 91.7 | 25.5 | – |
| GGGUCACAUGAGGAUCACCCAUGUGAGGAUAUGAUACUAUGUACUUCGGUACAUAGUAUCAGAAGGCACAUAAA [Ex1-3: 18] (puzzle: Exclusion 1) | 36.6 | – | – | – |
| AAAUAAUAGAUAAAAUAAUACAUGAGGAUCACCCAUGUGGGAUGCUGAGGGUGAUACAAGCUUUUUGCUCGUCUUAU (puzzle: Sensor v3, turn-off variant 1) | 19.7 | – | – | apparent KD of MS2 coat protein [1]: 212 nM; apparent KD of MS2 coat protein [3]: 245 nM |
| CGUGCGUAUGUGAGGAUAUGCUGGUCCUUGGAUCGGCAGAAGGCACAUGAGGAUCACCCAUGUGGUGUCGUACG [salish99_Bmod_ex4_080] (puzzle: Brourd's mod of Exclusion 4) | 374 | – | – | – |
| AUUAUGUUAGGAUAUGCUUAUGGUGGAUAAUCGGAUAUGAUGCAGAAGGGACAUGAGGAUCACCCAUGUACUGA [EX4 #24] (Eterna round: R97, puzzle: Exclusion 4) | – | 22.3 | 22.7 | – |

| Sequence | apparent KD of MS2 coat protein [2] [nM] | apparent KD of MS2 coat protein (input ligand: FMN 200 uM) [nM] | apparent KD of MS2 coat protein (input ligand: none) [nM] | also measured |
| --- | --- | --- | --- | --- |
| GUACGCUCAGGAUAUCAAGGGCUGUACAUGAGGAUCACCCAUGUUAUCUUGGUGUCAGCGUGAGAAGGGAGGGAAA [Xesoonesa] (Eterna round: R96, puzzle: Exclusion 5) | – | 27.2 | 28.6 | apparent KD of MS2 coat protein [4]: 20.2 nM |
| AACUAGUCAGGAUAUACGAACAUGUCAAAAAACAUGAAGGGACAUGAGGAUCACCCAUGUAGAAGGGACUAGCA [74%, Web mod - With 3 less G's] (Eterna round: R96, puzzle: Exclusion 2) | – | – | – | apparent KD of MS2 coat protein [4]: 29.3 nM |
| AACGUGUAAGGAUAUCUGCUUAUGCUCAGCGAUACGCUGAUAGAGAAGGUACAUGAGGAUCACCCAUGUUCCAA [EX4 A.17] (Eterna round: R97, puzzle: Exclusion 4) | – | 20.4 | 17.5 | – |
| CUUUCGUGAGGAUAUCAGUAGUAAUAAUAUAAAAUUACUACUGAGAAGGCACAUGAGGAUCACCCAUGUUCCUC [salish99_ex3_r3_101] (puzzle: Exclusion 4) | 23.7 | – | – | – |
| GCAUUUGAGCAGGAUAUAGCCUGAACAUAAUGGUUAGAAGGGCUCACAUGAGGAUCACCCAUGUGGUGUCCUAA [Rateria] (puzzle: Exclusion 6) | 11.6 | – | – | – |
| GGUGGACAUGAGGAUCACCCAUGUGAGGAUAUCGGCUGGCUAGCGGCGGACGGCUUCUCGAGAAGGCGCAUUGU [Exclusion 1 V83] (puzzle: Exclusion 1) | 46.3 | – | – | – |
| AUAAAGAAUGUUAGGAUAUUGGUGAAUAGGCUGACUAAGAAGGAACAUGAGGAUCACCCAUGUAACAUGGAAAA [Tiinzaesqu] (puzzle: Brourd's mod of Exclusion 4) | 24.5 | – | – | apparent KD of MS2 coat protein [1]: 68.8 nM; apparent KD of MS2 coat protein [3]: 33.6 nM |
| UCGGCGCGAGGAUAUACGUUUGCUUUUUAGGAUCGUUGCGUACAUGAGGAUCACCCAUGUAGAAGGCGCGCCGC [Apr-15 SS2-27] (puzzle: Exclusion 2) | 12.4 | – | – | – |
| GCCUAUGUGGAGGAUAUCGACUUCGAAAGAAGUCGAGAAGGCCACACAUGAGGAUCACCCAUGUGGUGCCAGGC [Omei Ex6 H13] (Eterna round: R97, puzzle: Exclusion 6) | – | 336 | 293 | – |
| ACAUGAGGAUCACCCAUGUGAAACCAAUGGCUGACUUUGAGCUAGGAUAUUUGUGCAUAUCAAACAAAGAAGGAGCAUUACUGG [Deportation 98 - Jieux - Exclusion NG 3] (Eterna round: R96, puzzle: Exclusion NG 3) | – | – | – | apparent KD of MS2 coat protein [4]: 30.2 nM |
| AAUUAGUAUGUGAGGAUAUUAAUGGAAUGACUUAUUAAGAAGGCACAUGAGGAUCACCCAUGUGGGAAGUCACG [JR_BMEx4_Sub013] (Eterna round: R97, puzzle: Brourd's mod of Exclusion 4) | – | 49.2 | 15.6 | – |
| ACAAGCUAACUCAUAUCUUACAUGAGGAUCACCCAUGUUUUUUCAAUUUUGUUUGGUCUCCUUUGUGCUCGUCUUAU [JR_STOV1_Sub052] (Eterna round: R97, puzzle: Sensor, turn-off variant 1) | – | 66 | 64.9 | – |
| GGUAUACAUGAGGAUCACCCAUGUCAGGAUAUGGAAACAUAUGCCGAAAGGCAUAUGGCCAGAAGGGACAAUAG [AK-MS2ROC-r4-exclusion1-5.1] (Eterna round: R97, puzzle: Exclusion 1) | – | 117 | 77.5 | – |
| UAUUACAAGCGAAGAUCCCACAUGAGGAUCACCCAUGUGCUCGUCUUAUAAGGUACUGUGACGAAAGUCACGGUACC [Sensor 3, v1 - 91 v16] (Eterna round: R97, puzzle: Sensor, turn-off variant 1) | – | 32.7 | 31.1 | – |
| GUUAUGUCAGGAUAUGCUAAUGAUGAAUGAUCAGACAUAAUGUAGAAGGGACAUGAGGAUCACCCAUGUAAUAU [EX4 #6] (Eterna round: R97, puzzle: Exclusion 4) | – | 29.4 | 23.3 | – |
| ACACACACAGGAUAUCUUCCGCAUGACAUGAGGAUCACCCAUGUGUGCAUGCCCAAAAGUAGAGAAGGGUGUGUGU [eternacac ex5r4 #2] (Eterna round: R97, puzzle: Exclusion 5) | – | 26.2 | 29.2 | – |
| UUAUACGUUGAGGAUAUGCGACUUAGUAUAGUUGUAGAAGGCGAUACAUGAGGAUCACCCAUGUUUAUGGGCAU [LRO-Ex6-09] (puzzle: Exclusion 6) | 227 | – | – | – |
| AAAUCCGCUGAGGAUAUUAUGACUGAGAGGUCAUGAGAAGGCGGUACAUGAGGAUCACCCAUGUCUAUGGGCAA [Ex-6 Malc#27] (puzzle: Exclusion 6) | 292 | – | – | apparent KD of MS2 coat protein [1]: 377 nM; apparent KD of MS2 coat protein [3]: 553 nM |
